This assay deals with T1, CEH-14_(LIM1+2) as it stands in the tethered CEH-14–LIM-7 complex (C. elegans, UniProt P20271 42-168).
T1 construct: CEH-14, C. elegans, tandem LIM domains LIM1+2, residues 42-168; Joined on one chain with m29 through an 11-residue Gly/Ser linker; the whole chain is m27; also called LIM domains from CEH-14
T1 sequence (looked up): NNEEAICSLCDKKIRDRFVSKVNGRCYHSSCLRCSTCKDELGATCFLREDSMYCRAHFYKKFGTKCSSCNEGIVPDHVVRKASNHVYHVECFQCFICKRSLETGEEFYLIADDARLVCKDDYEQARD
The assay is described as follows: SAXS; tethered complex on one chain, 5.2 mg/mL, 50 mM Tris, 100 mM NaCl, 5 mM TCEP pH 8.0 (the legend says 20 mM Tris pH 8.0, 150 mM NaCl, 1 mM TCEP), 10 °C; low-resolution shape restoration. To be noted: both partners purified.

B1: LIM-7LID as it stands in the tethered CEH-14–LIM-7 complex (domain or fragment, C. elegans)
chain: GIGPLMVQPATPHIDNTLGGPIDIQHFAQW
notes: Joined on one chain with m28 through an 11-residue Gly/Ser linker; the whole chain is m27; also called LID from LIM-7
Consider B1, for which the binding result is “binds”.
